± gives the standard error. For some assays here: Fewer inactive variants are shown than the library holds.
B1: glmS ribozyme (parent)
chain: AUAAAAGCGCCAGAACUACAGAAAUGUAGUUGACGAGGAGGAGGUUUAUCGAAUUUUCGGCGGAUGCCUCCAAA

Tests used:
Conditions in all cases: with glucosamine-6-phosphate
glucosamine-6-phosphate [1] = variants of: B1; experiment: kcat; higher = faster cleavage; RNA array
Outline: (§1)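 Tiles of sequenced MiSeq chips were imaged over ~14 h at 37 °C. On them, barcoded ribozyme variants had been transcribed in situ by E. coli RNA polymerase and were tracked via a hybridised Cy3 probe while glucosamine-6-phosphate (40 μM to 10 mM) in HEPES/KCl/Mg(OAc)2 buffer flowed in. Per-tile medians, normalised to baseline and to non-cleaving reference variants, were fit to one- or two-exponential decays for kobs, and weighted Michaelis–Menten fits gave kcat and KM.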

glucosamine-6-phosphate [2] = variants of: B1; experiment: KM; higher = weaker cofactor use; RNA array
Outline: as §1

glucosamine-6-phosphate [3] = variants of: B1; experiment: self-cleavage kobs at 40 uM GlcN6P; higher = faster cleavage; RNA array
Outline: as §1

glucosamine-6-phosphate [4] = variants of: B1; experiment: self-cleavage kobs at 160 uM GlcN6P; higher = faster cleavage; RNA array
Outline: as §1

glucosamine-6-phosphate [5] = variants of: B1; experiment: self-cleavage kobs at 640 uM GlcN6P; higher = faster cleavage; RNA array
Outline: as §1

glucosamine-6-phosphate [6] = variants of: B1; experiment: self-cleavage kobs at 2500 uM GlcN6P; higher = faster cleavage; RNA array
Outline: as §1

glucosamine-6-phosphate [7] = variants of: B1; experiment: self-cleavage kobs at 10000 uM GlcN6P; higher = faster cleavage; RNA array
Outline: as §1

Variant	kcat (glucosamine-6-phosphate [1]) [s⁻¹]	KM (glucosamine-6-phosphate [2]) [µM]	self-cleavage kobs at 40 uM GlcN6P (glucosamine-6-phosphate [3]) [s⁻¹]	self-cleavage kobs at 160 uM GlcN6P (glucosamine-6-phosphate [4]) [s⁻¹]	self-cleavage kobs at 640 uM GlcN6P (glucosamine-6-phosphate [5]) [s⁻¹]	self-cleavage kobs at 2500 uM GlcN6P (glucosamine-6-phosphate [6]) [s⁻¹]	self-cleavage kobs at 10000 uM GlcN6P (glucosamine-6-phosphate [7]) [s⁻¹]
U30A C71U	0.0039 ± 0.00081	1470 ± 450	0.000127 ± 2.5e-05	0.000337 ± 8e-05	0.00116 ± 0.00024	0.0021 ± 0.00045	0.00416 ± 0.00086
U31A A53G	0.0153 ± 0.0017	1860 ± 270	0.00035 ± 4.3e-05	0.00107 ± 0.00018	0.0038 ± 0.00071	0.0096 ± 0.0019	0.0127 ± 0.002
U30G U65A	0.00108 ± 0.00019	3500 ± 1100	3.04e-05 ± 1.2e-05		0.000157 ± 2.9e-05	0.000483 ± 0.00014	0.000797 ± 0.0001
U30G U65G	0.00191 ± 0.00048	3590 ± 1400		8.07e-05 ± 1.4e-05	0.000378 ± 6e-05	0.000614 ± 0.0001	0.00155 ± 0.00019
U30G U65C	0.000117 ± 2.1e-05				4.91e-05 ± 1.7e-05	0.000122 ± 2.6e-05	9.72e-05 ± 2.2e-05
G29U G41C U54G C70G	0.0128 ± 0.0056		0.00037 ± 9.8e-05		0.00251 ± 0.00059	0.0068 ± 0.0018	0.0126 ± 0.0039
U30G G38U	< 1e-05	87.6 ± 41					
U30C G40U	4.56e-05 ± 6.3e-06					5.33e-05 ± 1.1e-05	4.17e-05 ± 6.9e-06
G29U U54G	0.00305 ± 0.00096	1760 ± 820	7.25e-05 ± 1.3e-05	0.000223 ± 4.1e-05	0.00114 ± 0.00016	0.0013 ± 0.00024	0.00321 ± 0.00046
G29U C67G	0.000311 ± 6.2e-05	3390 ± 1100		2.38e-05 ± 1e-05	5.43e-05 ± 5.8e-06	0.000111 ± 1.3e-05	0.000251 ± 2.4e-05
U31A C68G	3.4e-05 ± 9.3e-07	408 ± 78				2.78e-05 ± 1.1e-05	3.32e-05 ± 8.1e-06
U31A C50G U65C C67U	0.000126 ± 2.3e-05		8.02e-05 ± 1.6e-05	0.000177 ± 5e-05	0.000147 ± 4.9e-05	0.000191 ± 4.1e-05	0.000104 ± 1.9e-05
U30A U65A	0.000636 ± 0.00012	2480 ± 800		5.83e-05 ± 2e-05	0.000114 ± 2.4e-05	0.000384 ± 8.4e-05	0.000495 ± 8.6e-05
G29U C58U	0.000107 ± 1.1e-05	3710 ± 980				4.57e-05 ± 9.1e-06	7.71e-05 ± 8.8e-06
U30C A39G	0.00121 ± 0.00015	3930 ± 730		5.74e-05 ± 1.6e-05	0.00016 ± 2.7e-05	0.00046 ± 6.8e-05	0.000888 ± 0.00014
U31C A53C	0.00137 ± 0.00011	2260 ± 350		0.00011 ± 3.6e-05	0.00028 ± 8e-05	0.0007 ± 0.00011	0.00116 ± 0.0002
U30A U55A C71U	0.00347 ± 0.0015		0.000138 ± 3.7e-05		0.00113 ± 0.00035	0.00197 ± 0.00068	0.00566 ± 0.0018
G29C G66A	0.00186 ± 0.00025	4030 ± 750		6.45e-05 ± 1.3e-05	0.00027 ± 3.9e-05	0.000714 ± 0.00013	0.00132 ± 0.0002
U31C C58A	0.000146 ± 6.8e-06	1390 ± 210			5.08e-05 ± 1.5e-05	8.99e-05 ± 1.5e-05	0.00013 ± 1.5e-05
U30A G32A	0.00147 ± 0.00062			0.000109 ± 2.5e-05	0.000192 ± 3.2e-05	0.000485 ± 9.6e-05	0.0012 ± 0.00022
U30A G40A	0.0022 ± 0.0011		4.53e-05 ± 1.6e-05	7.47e-05 ± 1.6e-05	0.000134 ± 5.6e-05	0.000927 ± 0.0002	0.0014 ± 0.00025
G29C C61G	2.64e-05 ± 1e-05		< 1e-05				
G29U C70A	6.65e-05 ± 8.1e-06				4.74e-05 ± 7.5e-06	6.79e-05 ± 7.2e-06	5.54e-05 ± 7.6e-06
G29U G43A	< 1e-05		< 1e-05	< 1e-05			
U31A U55C	0.0168 ± 0.0039	3130 ± 990	0.000283 ± 4.3e-05	0.000647 ± 0.00012	0.00293 ± 0.00082	0.00826 ± 0.0023	0.0127 ± 0.0018
G29C U55A	0.00298 ± 0.00096	3270 ± 1400	4.44e-05 ± 1.1e-05	0.000171 ± 3e-05	0.000406 ± 6.1e-05	0.00139 ± 0.00019	0.00222 ± 0.00061
U30C U45C	3.55e-05 ± 1.6e-05		< 1e-05			4.35e-05 ± 2.1e-05	
U30C U45A	0.000449 ± 4.9e-05	1150 ± 280		5.04e-05 ± 1.7e-05	0.000176 ± 3.8e-05	0.000235 ± 8.7e-05	0.000418 ± 6e-05
U30A A48C	9.77e-05 ± 4.8e-06						4.29e-05 ± 8.1e-06
